# B1: Nuclear RNAi defective-3 protein (Caenorhabditis elegans), Q21691 (parent)
# chain: MDLLDKVMGEMGSKPGSTAKKPATSASSTPRTNVWGTAKKPSSQQQPPKPLFTTPGSQQGSLGGRIPKREHTDRTGPDPKRKPLGGLSVPDSFNNFGTFRVQMNAWNLDISKMDERISRIMFRATLVHTDGRRFELSLGVSAFSGDVNRQQRRQAQCLLFRAWFKRNPELFKGMTDPAIAAYDAAETIYVGCSFFDVELTEHVCHLTEADFSPQEWKIVSLISRRSGSTFEIRIKTNPPIYTRGPNALTLENRSELTRIIEAITDQCLHNEKFLLYSSGTFPTKGGDIASPDEVTLIKSGFVKTTKIVDRDGVPDAIMTVDTTKSPFYKDTSLLKFFTAKMDQLTNSGGGPRGHNGGRERRDGGGNSRKYDDRRSPRDGEIDYDERTVSHYQRQFQDERISDGMLNTLKQSLKGLDCQPIHLKDSKANRSIMIDEIHTGTADSVTFEQKLPDGEMKLTSITEYYLQRYNYRLKFPHLPLVTSKRAKCYDFYPMELMSILPGQRIKQSHMTVDIQSYMTGKMSSLPDQHIKQSKLVLTEYLKLGDQPANRQMDAFRVSLKSIQPIVTNAHWLSPPDMKFANNQLYSLNPTRGVRFQTNGKFVMPARVKSVTIINYDKEFNRNVDMFAEGLAKHCSEQGMKFDSRPNSWKKVNLGSSDRRGTKVEIEEAIRNGVTIVFGIIAEKRPDMHDILKYFEEKLGQQTIQISSETADKFMRDHGGKQTIDNVIRKLNPKCGGTNFLIDVPESVGHRVVCNNSAEMRAKLYAKTQFIGFEMSHTGARTRFDIQKVMFDGDPTVVGVAYSLKHSAQLGGFSYFQESRLHKLTNLQEKMQICLNAYEQSSSYLPETVVVYRVGSGEGDYPQIVNEVNEMKLAARKKKHGYNPKFLVICTQRNSHIRVFPEHINERGKSMEQNVKSGTCVDVPGASHGYEEFILCCQTPLIGTVKPTKYTIIVNDCRWSKNEIMNVTYHLAFAHQVSYAPPAIPNVSYAAQNLAKRGHNNYKTHTKLVDMNDYSYRIKEKHEEIISSEEVDDILMRDFIETVSNDLNAMTINGRNFWA
# partner: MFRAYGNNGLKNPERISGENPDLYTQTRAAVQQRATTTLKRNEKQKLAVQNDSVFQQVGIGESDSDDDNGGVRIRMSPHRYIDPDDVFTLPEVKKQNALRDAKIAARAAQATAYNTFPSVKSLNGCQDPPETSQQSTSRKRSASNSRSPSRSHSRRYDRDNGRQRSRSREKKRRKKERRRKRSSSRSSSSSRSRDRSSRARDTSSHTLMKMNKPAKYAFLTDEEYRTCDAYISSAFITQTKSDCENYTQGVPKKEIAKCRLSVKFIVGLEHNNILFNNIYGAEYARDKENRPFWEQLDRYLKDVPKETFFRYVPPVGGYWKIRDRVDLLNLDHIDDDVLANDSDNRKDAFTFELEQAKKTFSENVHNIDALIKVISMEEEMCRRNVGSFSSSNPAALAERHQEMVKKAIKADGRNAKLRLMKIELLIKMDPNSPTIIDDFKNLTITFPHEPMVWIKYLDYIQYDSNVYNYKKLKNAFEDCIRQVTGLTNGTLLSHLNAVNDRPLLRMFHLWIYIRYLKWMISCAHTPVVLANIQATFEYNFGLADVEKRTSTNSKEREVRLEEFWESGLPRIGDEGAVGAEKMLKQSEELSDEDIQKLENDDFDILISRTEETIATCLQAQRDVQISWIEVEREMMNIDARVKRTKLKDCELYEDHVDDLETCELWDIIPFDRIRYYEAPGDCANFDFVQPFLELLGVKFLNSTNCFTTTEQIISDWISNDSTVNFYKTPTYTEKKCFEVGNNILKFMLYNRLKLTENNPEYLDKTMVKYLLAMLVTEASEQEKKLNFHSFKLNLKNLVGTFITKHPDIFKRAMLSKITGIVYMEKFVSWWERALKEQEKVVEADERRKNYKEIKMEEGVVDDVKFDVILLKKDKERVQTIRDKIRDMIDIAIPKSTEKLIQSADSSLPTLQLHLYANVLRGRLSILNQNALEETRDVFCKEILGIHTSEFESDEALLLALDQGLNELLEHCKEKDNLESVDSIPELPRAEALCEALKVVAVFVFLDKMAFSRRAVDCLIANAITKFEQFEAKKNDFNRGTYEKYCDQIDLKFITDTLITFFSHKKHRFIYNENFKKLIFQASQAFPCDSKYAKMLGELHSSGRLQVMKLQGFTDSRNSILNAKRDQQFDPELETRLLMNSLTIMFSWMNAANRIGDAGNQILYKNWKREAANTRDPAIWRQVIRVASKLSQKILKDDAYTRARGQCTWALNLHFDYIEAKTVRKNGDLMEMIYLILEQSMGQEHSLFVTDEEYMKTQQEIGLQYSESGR
# Variants of: B1
# Details: with nrde2_caeel nrde-2, G5EG51
row,effect of a mutation on the interaction,Variant
1,disrupting interaction,K80A;R81A;K82A
